In publication PMC11369174 (Molecular Systems Biology, 2024):
One block for each binder: values may come before it. Where no end group is shown, it is not given here.

Tests used:
Assay in all cases: fluorescence polarisation; saturation binding: dilution series of the protein domain added to 10 nM FITC-labelled peptide; 50 mM sodium phosphate pH 7.4, 0.05% Tween (protein dialysed in 50 mM sodium phosphate with 1 mM DTT; CASK kinase domain with 100 mM NaCl in addition); quadratic fit; technical triplets
Conditions in all cases: both partners purified
USP7 MATH/TRAF domain = molecular target: T1, USP7 MATH/TRAF domain (human)
T1 construct: USP7, human, MATH/TRAF domain; source: E. coli BL21 (DE3) Gold, purified (glutathione or Ni2+ beads)

MAP1LC3B ATG8 domain = MAP1LC3B ATG8 domain (human, UniProt Q9GZQ8 1-120)
GABARAPL1 ATG8 domain = molecular target: T2, GABARAPL1 ATG8 domain (human)
T2 construct: GABARAPL1, human, ATG8 domain; source: E. coli BL21 (DE3) Gold, purified (glutathione or Ni2+ beads)

MAP1LC3A ATG8 domain = molecular target: T3, MAP1LC3A ATG8 domain (human)
T3 construct: MAP1LC3A, human, ATG8 domain; source: E. coli BL21 (DE3) Gold, purified (glutathione or Ni2+ beads)

- Kd (USP7 MATH/TRAF domain): 500 nM
B1: FITC-MDM2 (peptide)
chain: DYSQPSTSSSIIY
modifications: also: FITC label, position not given here

- Kd (MAP1LC3B ATG8 domain): 1400 nM
- Kd (GABARAPL1 ATG8 domain): 3700 nM
- Kd (MAP1LC3A ATG8 domain): 680 nM
B2: FITC-SQSTM1 (peptide)
chain: DDDWTHLSSK
modifications: also: FITC label, position not given here
